How the values were obtained:
[1] = molecular target: Recombinant, his tagged full length human frataxin protein (Abcam ab95502) (human) (UniProt Q16595); assay: Simoa sandwich 2-step; capture Ab-3
[2] = molecular target: Recombinant, his tagged full length human frataxin protein (Abcam ab95502) (human) (UniProt Q16595); assay: Simoa sandwich 3-step; capture Ab-4; frataxin 100 pg/mL
[3] = molecular target: Recombinant, his tagged full length human frataxin protein (Abcam ab95502) (human) (UniProt Q16595); assay: Simoa sandwich 3-step; capture Ab-3; frataxin 100 pg/mL
[4] = molecular target: Recombinant, his tagged full length human frataxin protein (Abcam ab95502) (human) (UniProt Q16595); assay: as above; remark: listed apart in the source
[5] = molecular target: Recombinant, his tagged full length human frataxin protein (Abcam ab95502) (human) (UniProt Q16595); assay: Simoa sandwich 3-step; capture Ab-5; frataxin 100 pg/mL
[6] = molecular target: Recombinant, his tagged full length human frataxin protein (Abcam ab95502) (human) (UniProt Q16595); assay: Simoa sandwich 3-step; capture Ab-2; frataxin 10000 pg/mL
[7] = molecular target: Recombinant, his tagged full length human frataxin protein (Abcam ab95502) (human) (UniProt Q16595); assay: Simoa sandwich 2-step; capture Ab-3; remark: listed apart in the source
[8] = molecular target: Recombinant, his tagged full length human frataxin protein (Abcam ab95502) (human) (UniProt Q16595); assay: Simoa sandwich 3-step; capture Ab-1
[9] = molecular target: Recombinant, his tagged full length human frataxin protein (Abcam ab95502) (human) (UniProt Q16595); assay: Simoa sandwich 3-step; capture Ab-1; frataxin 10000 pg/mL
[10] = molecular target: Recombinant, his tagged full length human frataxin protein (Abcam ab95502) (human) (UniProt Q16595); assay: Simoa sandwich 2-step; capture Ab-3; frataxin 1000 pg/mL
[11] = molecular target: Recombinant, his tagged full length human frataxin protein (Abcam ab95502) (human) (UniProt Q16595); assay: Simoa sandwich 3-step; capture Ab-5
[12] = molecular target: Recombinant, his tagged full length human frataxin protein (Abcam ab95502) (human) (UniProt Q16595); assay: Simoa sandwich 3-step; capture Ab-3
[13] = molecular target: Recombinant, his tagged full length human frataxin protein (Abcam ab95502) (human) (UniProt Q16595); assay: Simoa sandwich 2-step; capture Ab-3; frataxin 55.6 pg/mL
[14] = molecular target: Recombinant, his tagged full length human frataxin protein (Abcam ab95502) (human) (UniProt Q16595); assay: Simoa sandwich 3-step; capture Ab-1; frataxin 1000 pg/mL
[15] = molecular target: Recombinant, his tagged full length human frataxin protein (Abcam ab95502) (human) (UniProt Q16595); assay: Simoa sandwich 3-step; capture Ab-1; frataxin 100 pg/mL
[16] = molecular target: Recombinant, his tagged full length human frataxin protein (Abcam ab95502) (human) (UniProt Q16595); assay: Simoa sandwich 3-step; capture Ab-4; frataxin 10000 pg/mL
[17] = molecular target: Recombinant, his tagged full length human frataxin protein (Abcam ab95502) (human) (UniProt Q16595); assay: Simoa sandwich 2-step; capture Ab-3; frataxin 2.06 pg/mL
[18] = molecular target: Recombinant, his tagged full length human frataxin protein (Abcam ab95502) (human) (UniProt Q16595); assay: Simoa sandwich 3-step; capture Ab-3; remark: listed apart in the source
[19] = molecular target: Recombinant, his tagged full length human frataxin protein (Abcam ab95502) (human) (UniProt Q16595); assay: Simoa sandwich 3-step; capture Ab-2; frataxin 1000 pg/mL
[20] = molecular target: Recombinant, his tagged full length human frataxin protein (Abcam ab95502) (human) (UniProt Q16595); assay: Simoa sandwich 2-step; capture Ab-3; frataxin 0.686 pg/mL
[21] = molecular target: Recombinant, his tagged full length human frataxin protein (Abcam ab95502) (human) (UniProt Q16595); assay: Simoa sandwich 2-step; capture Ab-3; frataxin 100 pg/mL
[22] = molecular target: Recombinant, his tagged full length human frataxin protein (Abcam ab95502) (human) (UniProt Q16595); assay: Simoa sandwich 3-step; capture Ab-3; frataxin 1000 pg/mL
[23] = molecular target: Recombinant, his tagged full length human frataxin protein (Abcam ab95502) (human) (UniProt Q16595); assay: Simoa sandwich 2-step; capture Ab-3; frataxin 18.5 pg/mL
[24] = molecular target: Recombinant, his tagged full length human frataxin protein (Abcam ab95502) (human) (UniProt Q16595); assay: Simoa sandwich 2-step; capture Ab-3; frataxin 6.17 pg/mL
[25] = molecular target: Recombinant, his tagged full length human frataxin protein (Abcam ab95502) (human) (UniProt Q16595); assay: Simoa sandwich 3-step; capture Ab-4; frataxin 1000 pg/mL
[26] = molecular target: Recombinant, his tagged full length human frataxin protein (Abcam ab95502) (human) (UniProt Q16595); assay: Simoa sandwich 3-step; capture Ab-5; frataxin 1000 pg/mL
[27] = molecular target: Recombinant, his tagged full length human frataxin protein (Abcam ab95502) (human) (UniProt Q16595); assay: Simoa sandwich 2-step; capture Ab-3; frataxin 167 pg/mL
[28] = molecular target: Recombinant, his tagged full length human frataxin protein (Abcam ab95502) (human) (UniProt Q16595); assay: Simoa sandwich 3-step; capture Ab-2
[29] = molecular target: Recombinant, his tagged full length human frataxin protein (Abcam ab95502) (human) (UniProt Q16595); assay: Simoa sandwich 3-step; capture Ab-2; frataxin 100 pg/mL
[30] = molecular target: Recombinant, his tagged full length human frataxin protein (Abcam ab95502) (human) (UniProt Q16595); assay: Simoa sandwich 2-step; capture Ab-3; frataxin 500 pg/mL
[31] = molecular target: Recombinant, his tagged full length human frataxin protein (Abcam ab95502) (human) (UniProt Q16595); assay: Simoa sandwich 3-step; capture Ab-4
[32] = molecular target: Recombinant, his tagged full length human frataxin protein (Abcam ab95502) (human) (UniProt Q16595); assay: Simoa sandwich 3-step; capture Ab-3; frataxin 1000 pg/mL; remark: listed apart in the source

Chain of UniProt Q16595 (Q16595 42-210): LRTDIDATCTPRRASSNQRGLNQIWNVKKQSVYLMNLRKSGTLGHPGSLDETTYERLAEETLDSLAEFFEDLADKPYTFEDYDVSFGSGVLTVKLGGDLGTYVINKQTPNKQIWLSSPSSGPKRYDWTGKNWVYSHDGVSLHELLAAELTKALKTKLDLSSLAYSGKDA

Ab-4, mouse monoclonal [17A11] to Frataxin (Abcam ab113691) (antibody)
LOD [1]: 0.44 pg/mL | Ave AEB [2]: 0.0213 AEB | S/B [2]: 0.93 | Ave AEB [3]: 0.68 AEB | S/B [3]: 11.7 | Ave AEB [4]: 1.34 AEB | S/B [4]: 16.8 | Ave AEB [5]: 2.02 AEB | S/B [5]: 4.93 | Ave AEB [6]: 32.9 AEB | S/B [6]: 183 | LOD [7]: 0.36 pg/mL | LOD [8]: 23.9 pg/mL | Ave AEB [9]: 30.9 AEB | S/B [9]: 140 | Ave AEB [10]: 29.7 AEB | S/B [10]: 394 | LOD [11]: 6.44 pg/mL | LOD [12]: 1.59 pg/mL | Ave AEB [13]: 3.75 AEB | S/B [13]: 32.6 | Ave AEB [14]: 8.74 AEB | S/B [14]: 39.6 | Ave AEB [15]: 0.64 AEB | S/B [15]: 2.9 | Ave AEB [16]: 0.82 AEB | S/B [16]: 35.6 | Ave AEB [17]: 0.259 AEB | S/B [17]: 2.25 | LOD [18]: 2.41 pg/mL | Ave AEB [19]: 7.32 AEB | S/B [19]: 40.7 | Ave AEB [20]: 0.157 AEB | S/B [20]: 1.36 | Ave AEB [21]: 5.1 AEB | S/B [21]: 67.6 | Ave AEB [22]: 12.8 AEB | S/B [22]: 160 | Ave AEB [23]: 1.31 AEB | S/B [23]: 11.4 | Ave AEB [24]: 0.56 AEB | S/B [24]: 4.87 | Ave AEB [25]: 0.0589 AEB | S/B [25]: 2.55 | Ave AEB [26]: 18.6 AEB | S/B [26]: 45.4 | Ave AEB [27]: 11.1 AEB | S/B [27]: 97 | LOD [28]: 5.01 pg/mL | Ave AEB [29]: 1.02 AEB | S/B [29]: 5.67 | Ave AEB [30]: 23.7 AEB | S/B [30]: 206 | LOD [31]: 358 pg/mL | Ave AEB [32]: 8.02 AEB | S/B [32]: 138

— patent US20220308072A1
